Columns and labels:
[1] = target: the molecule itself; experiment: non-reducing SDS-PAGE
[2] = target: the molecule itself; experiment: cross-linking
[3] = target: the molecule itself; experiment: non-reducing SDS-PAGE with immunoblot

B1: GST-CNBP (recombinant cellular nucleic acid-binding protein with GST tag) (natural protein, mouse, UniProt P53996 1-178, looked up)
chain: MSSNECFKCGRSGHWARECPTGGGRGRGMRSRGRGGFTSDRGFQFVSSSLPDICYRCGESGHLAKDCDLQEDEACYNCGRGGHIAKDCKEPKREREQCCYNCGKPGHLARDCDHADEQKCYSCGEFGHIQKDCTKVKCYRCGETGHVAINCSKTSEVNCYRCGESGHLARECTIEATA
stoichiometry N [1]: 2

B2: endogenous CNBP (cellular nucleic acid-binding protein) (natural protein, mouse (endogenous in RAW 264.7), UniProt P53996 1-178, looked up)
chain: MSSNECFKCGRSGHWARECPTGGGRGRGMRSRGRGGFTSDRGFQFVSSSLPDICYRCGESGHLAKDCDLQEDEACYNCGRGGHIAKDCKEPKREREQCCYNCGKPGHLARDCDHADEQKCYSCGEFGHIQKDCTKVKCYRCGETGHVAINCSKTSEVNCYRCGESGHLARECTIEATA
stoichiometry N [2]: 2

B3: CNBP-HA (wild type) (natural protein, mouse, UniProt P53996 1-178, looked up)
chain: MSSNECFKCGRSGHWARECPTGGGRGRGMRSRGRGGFTSDRGFQFVSSSLPDICYRCGESGHLAKDCDLQEDEACYNCGRGGHIAKDCKEPKREREQCCYNCGKPGHLARDCDHADEQKCYSCGEFGHIQKDCTKVKCYRCGETGHVAINCSKTSEVNCYRCGESGHLARECTIEATA
stoichiometry N [3]: 2
